Experiments:
lrp8_human LRP8 = lrp8_human LRP8 (UniProt Q14114)
vldlr_human VLDLR = vldlr_human VLDLR (UniProt P98155)

Chain of lrp8_human LRP8 (Q14114 whole entry): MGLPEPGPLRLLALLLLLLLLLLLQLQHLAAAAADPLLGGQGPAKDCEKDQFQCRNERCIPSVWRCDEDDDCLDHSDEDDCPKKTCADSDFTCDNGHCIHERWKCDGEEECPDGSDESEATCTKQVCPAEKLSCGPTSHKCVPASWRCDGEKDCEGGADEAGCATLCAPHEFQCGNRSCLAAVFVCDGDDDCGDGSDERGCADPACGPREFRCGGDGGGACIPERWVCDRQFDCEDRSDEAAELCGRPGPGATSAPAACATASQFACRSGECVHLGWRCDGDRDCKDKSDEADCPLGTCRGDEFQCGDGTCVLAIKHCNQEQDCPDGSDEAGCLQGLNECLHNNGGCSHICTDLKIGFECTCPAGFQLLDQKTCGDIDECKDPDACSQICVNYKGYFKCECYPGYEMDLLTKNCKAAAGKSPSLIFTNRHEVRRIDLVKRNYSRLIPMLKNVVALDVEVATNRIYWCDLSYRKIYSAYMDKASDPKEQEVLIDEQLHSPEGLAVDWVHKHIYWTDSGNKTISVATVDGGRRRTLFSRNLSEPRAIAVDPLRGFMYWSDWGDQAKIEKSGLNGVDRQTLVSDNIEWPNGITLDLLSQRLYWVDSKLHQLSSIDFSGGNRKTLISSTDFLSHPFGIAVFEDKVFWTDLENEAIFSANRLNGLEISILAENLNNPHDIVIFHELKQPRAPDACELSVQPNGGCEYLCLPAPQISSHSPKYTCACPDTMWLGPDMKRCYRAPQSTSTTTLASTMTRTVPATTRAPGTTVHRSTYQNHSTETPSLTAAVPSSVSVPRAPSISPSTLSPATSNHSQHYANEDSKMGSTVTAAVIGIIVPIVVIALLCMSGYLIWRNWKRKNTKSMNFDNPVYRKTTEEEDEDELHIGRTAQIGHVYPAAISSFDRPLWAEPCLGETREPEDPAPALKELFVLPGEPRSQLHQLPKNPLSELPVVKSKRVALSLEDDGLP

effect of a mutation on the interaction (lrp8_human LRP8)	effect of a mutation on the interaction (vldlr_human VLDLR)	Substance
disrupting interaction strength	disrupting interaction strength	Reelin (Mus musculus), Q60841 K2467A
disrupting interaction strength		Reelin (Mus musculus), Q60841 K2360A;K2467A
disrupting interaction strength		Reelin (Mus musculus), Q60841 K2360A

— IntAct's records for PubMed 17548821
